For this assay, the target named is Recombinant RbAp48 (human, UniProt Q09028 1-425). As to the kind of experiment: ITC; MTA1 peptide (250 uM) titrated into RbAp48 (25 uM); 25 C; 20 mM Tris pH 7.5, 150 mM NaCl; single-site model. The conditions noted are these: both partners purified.
Chain of Recombinant RbAp48 (Q09028 whole entry): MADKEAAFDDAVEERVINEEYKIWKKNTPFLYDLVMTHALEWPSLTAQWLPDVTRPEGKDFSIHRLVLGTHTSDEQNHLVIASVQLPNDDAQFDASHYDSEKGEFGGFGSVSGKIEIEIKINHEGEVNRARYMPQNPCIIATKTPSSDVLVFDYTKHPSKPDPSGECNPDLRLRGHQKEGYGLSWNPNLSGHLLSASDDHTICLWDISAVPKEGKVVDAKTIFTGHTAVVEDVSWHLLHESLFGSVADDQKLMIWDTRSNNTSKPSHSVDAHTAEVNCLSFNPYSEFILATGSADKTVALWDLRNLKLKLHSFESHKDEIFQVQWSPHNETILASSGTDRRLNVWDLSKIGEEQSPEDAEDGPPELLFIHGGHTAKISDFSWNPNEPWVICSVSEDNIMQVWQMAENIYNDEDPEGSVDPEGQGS

As a reminder, the stoichiometry N is a count of units in the complex or per binding partner. On to Ac-KLLSSSETKRAARRPYKPIALRQSQALPPRPPPPAPVNDEPI-NH2 (peptide, UniProt Q13330 670-711, looked up) [MTA1-(670-711) peptide], for which the “stoichiometry N” value is 1. Usually Kd stands for the equilibrium constant for the complex coming apart. For the molecule Ac-KLLSSSETKRAARRPYKPIALRQSQA-NH2 (peptide, UniProt Q13330 670-695, looked up) [MTA1-(670-695) peptide], the Kd turned out to be 50 nM and the “stoichiometry N” value is 1. As for Ac-DVFYMATEETRKIRKLLSSSETKRAARRPYK-NH2 (peptide, UniProt Q13330 656-686, looked up) [MTA1-(656-686) peptide], the “stoichiometry N” value came to 1.

Source of the values: paper PMC4139204 (The Journal of Biological Chemistry, 2014).
